In this test the target is GST-RABL2^S37N (Chlamydomonas reinhardtii). The experiment in a line: SEC. A general note: Size exclusion chromatography separates by hydrodynamic size, large species first.

B1: ARL3^T30N (bacterially expressed) (natural protein)
chain: MGLLSLIRGLKKKEGEARILVLGLDNAGKNTILKALSEEDITTITPTQGFNIKSLSRDGFNLKIWDIGGQKSIRPYWRNYFDQTDALIYVIDSADSKRLSESEFELTELLQEEKMTGVPLLVFANKQDLVGALAADEIASTLDLTSIRDRPWQIQACSAKQGTGLKEGMEWMMKQVK
In general, stoichiometry N refers to a count of units in the complex or per binding partner. For B1, the stoichiometry N was 1.
